Test results: publication PMC2361298, “Securin (hPTTG1) expression is regulated by β-catenin/TCF in human colorectal carcinoma”

Target: GST-TCF-4 DBD (UniProt Q9NQB0 265-496)
Assay: EMSA; EMSA, 0.5 ug GST-TCF-4 DBD or GST; buffer, salt, pH and temperature not stated (as in Hlubek et al 2004)
Details: protein: recombinant; tags: GST; label: end label (probe); blunt

Sequence of GST-TCF-4 DBD (Q9NQB0 265-496): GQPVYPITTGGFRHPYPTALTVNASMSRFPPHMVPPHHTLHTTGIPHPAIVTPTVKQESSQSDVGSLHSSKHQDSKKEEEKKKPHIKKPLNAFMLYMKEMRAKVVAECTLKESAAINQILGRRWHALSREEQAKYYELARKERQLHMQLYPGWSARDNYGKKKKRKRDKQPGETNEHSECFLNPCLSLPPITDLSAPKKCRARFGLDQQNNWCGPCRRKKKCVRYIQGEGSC

B1: securin-TBE (wt) (dsDNA)
DNA 1: ATAAATCACTATCAAAGGATAGAATTT
DNA 2: AAATTCTATCCTTTGATAGTGATTTAT
binding result: binds

B2: securin-mutTBE (mt) (dsDNA)
DNA 1: ATAAATCACTGCCAAAGGATAGAATTT
DNA 2: AAATTCTATCCTTTGGCAGTGATTTAT
binding result: no binding
